{
  "source": "patent US20160298109A1",
  "key": {"GP120 (HIV-1 JRFL)": {"biological_target": "GP120 (HIV-1 JRFL)", "experiment": "SPR", "settings": "chains peptide; modification not given"}, "[1]": {"biological_target": "gp120 of HIV-1 BaL (HIV-1 BaL)", "experiment": "cell-based or functional assay"}, "[2]": {"biological_target": "HIV-1 JRFL gp120 protein (HIV-1 JRFL)", "experiment": "peptide blocking ELISA: coated gp120 pre-incubated with GP3 (125 ng), then recombinant CCR5-GST, anti-GST HRP; competitor CCR5"}},
  "data": [
    {"binder": "LLALSAYMVGGGGGGSGGSGK", "note": "[GP11]", "values": [
      {"measurement": "Kd", "setting": "GP120 (HIV-1 JRFL)", "value": 48.3, "unit": "µM"}
    ]},
    {"binder": "RRRNVPLILGGGGGGSGGSGK", "note": "[GP2]", "values": [
      {"measurement": "Kd", "setting": "GP120 (HIV-1 JRFL)", "value": 76.1, "unit": "µM"}
    ]},
    {"binder": "LWCRRLNLLGGGGGGSGGSGK", "note": "[GP16]", "values": [
      {"measurement": "inhibition of HIV-1 BaL infection (p24+ CD4 T cells), peptide without streptavidin, 50 µM", "setting": "[1]", "value": "< 1", "unit": "%"},
      {"measurement": "inhibition of HIV-1 BaL infection (p24+ CD4 T cells), peptide without streptavidin, 100 µM", "setting": "[1]", "value": "< 1", "unit": "%"},
      {"measurement": "inhibition of HIV-1 BaL infection (p24+ CD4 T cells), peptide without streptavidin, 250 µM", "setting": "[1]", "value": 50, "unit": "%"},
      {"measurement": "viral inhibition, peptide conjugated with streptavidin, 50 µM", "setting": "[1]", "value": 62.6, "unit": "%"},
      {"measurement": "Kd", "setting": "GP120 (HIV-1 JRFL)", "value": 42.7, "unit": "µM"}
    ]},
    {"binder": "SYSFCPRRQGGGGGGSGGSGK (modifications not checked)", "note": "[GP3]", "values": [
      {"measurement": "inhibition of HIV-1 BaL infection (p24+ CD4 T cells), peptide without streptavidin, 100 µM", "setting": "[1]", "value": 34.5, "unit": "%"},
      {"measurement": "inhibition of HIV-1 BaL infection (p24+ CD4 T cells), peptide without streptavidin, 250 µM", "setting": "[1]", "value": 54.7, "unit": "%"},
      {"measurement": "Kd", "setting": "GP120 (HIV-1 JRFL)", "value": 39.1, "unit": "µM"},
      {"measurement": "reduction in absorbance (CCR5 binding to gp120)", "setting": "[2]", "value": 65.8, "unit": "%"}
    ]}
  ]
}
